Test results as given in patent publication US20150044231A1 (Novo Nordisk, published 2015).
Blank lines part the entries; values can stand above or below the molecule they belong to.

Key:
His-FcγRI = His-FcγRI (UniProt P12314); test: SPR (BIAcore T100), Fc variant immobilised, His-FcγR as analyte
His-FcγRIIB = His-FcγRIIB (UniProt P31994); test: as above
His-FcγRIIA (131R) = His-FcγRIIA (131R) (UniProt P12318); test: as above
His-FcγRIIA (131H) = His-FcγRIIA (131H) (UniProt P12318); test: as above
Chain of His-FcγRIIA (131H) (P12318 36-218 limits assumed): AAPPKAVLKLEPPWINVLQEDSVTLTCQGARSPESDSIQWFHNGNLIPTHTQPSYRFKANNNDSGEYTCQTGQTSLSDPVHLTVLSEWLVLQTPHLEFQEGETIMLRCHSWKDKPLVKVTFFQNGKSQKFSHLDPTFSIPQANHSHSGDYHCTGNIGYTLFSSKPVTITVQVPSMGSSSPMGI

His-FcγRIII (158V) = His-FcγRIII (158V) (UniProt P08637); test: as above
Chain of His-FcγRIII (158V) (P08637 17-208 F176V limits assumed): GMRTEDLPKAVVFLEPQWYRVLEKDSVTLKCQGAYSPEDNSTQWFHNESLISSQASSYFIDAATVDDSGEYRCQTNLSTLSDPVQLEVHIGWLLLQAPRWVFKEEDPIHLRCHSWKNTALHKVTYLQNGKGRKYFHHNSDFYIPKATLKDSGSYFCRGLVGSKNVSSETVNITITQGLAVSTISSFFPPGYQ

His-FcγRIII (158F) = His-FcγRIII (158F) (UniProt P08637); test: as above
Chain of His-FcγRIII (158F) (P08637 17-208 limits assumed): as the sequence (P08637 17-208 F176V limits assumed) above, with V160F counted along it

human C5a receptor [1] = target: T1, human C5a receptor (human, UniProt P21730 1-350); test: SPA, unlabelled hC5a displacing 125I-hC5a from RBL-hC5aR membranes
T1 construct: In the SPA: receptor-carrying membrane fragments of RBL-hC5aR cells; also called hC5aR; C5aRI
T1 sequence: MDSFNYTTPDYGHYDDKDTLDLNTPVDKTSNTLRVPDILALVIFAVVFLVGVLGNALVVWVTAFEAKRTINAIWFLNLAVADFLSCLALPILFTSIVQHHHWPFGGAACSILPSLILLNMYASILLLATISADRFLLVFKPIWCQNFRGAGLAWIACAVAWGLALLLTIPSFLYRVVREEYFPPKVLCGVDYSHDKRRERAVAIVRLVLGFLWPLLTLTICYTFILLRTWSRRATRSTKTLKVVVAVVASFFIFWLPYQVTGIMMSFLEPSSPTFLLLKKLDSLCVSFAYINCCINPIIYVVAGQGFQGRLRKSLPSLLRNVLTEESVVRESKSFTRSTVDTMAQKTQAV
Experimental: (§1) A detailed description of the SPA is provided in U.S. Pat. No. 4,568,649 and protocols provided by the manufacturer (Amersham Biosciences). Briefly, receptor-carrying membrane fragments purified from RBL-hC5aR cells bind to scintillating micro particles coated with wheat germ agglutinin (WGA). […] Specific for the SPA-principle, only radio isotope and particles in immediate proximity of each other will emit light. […] The % displacement was calculated as follows: […]

human C5a receptor [2] = target: T1, human C5a receptor; test: cell-based or functional assay
human C5a receptor [3] = target: T1, human C5a receptor; test: cell-based or functional assay; remark: listed apart in the source
human C5a receptor [4] = target: T1, human C5a receptor; test: cell-based or functional assay; remark: listed apart in the source
human C5a receptor [5] = target: T1, human C5a receptor; test: SPA, displacement of 125I-hC5a from RBL-hC5aR membranes
Experimental: as §1

Chain of His-FcγRI (P12314 16-288 limits assumed): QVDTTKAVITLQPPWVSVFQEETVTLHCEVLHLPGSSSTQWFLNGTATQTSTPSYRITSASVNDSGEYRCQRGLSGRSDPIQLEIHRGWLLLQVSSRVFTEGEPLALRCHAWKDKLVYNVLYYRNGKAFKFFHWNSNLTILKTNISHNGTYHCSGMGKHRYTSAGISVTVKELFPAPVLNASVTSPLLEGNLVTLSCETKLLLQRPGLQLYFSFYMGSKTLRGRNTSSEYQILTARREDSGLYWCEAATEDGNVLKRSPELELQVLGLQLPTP
Chain of His-FcγRIIB (P31994 46-217 limits assumed): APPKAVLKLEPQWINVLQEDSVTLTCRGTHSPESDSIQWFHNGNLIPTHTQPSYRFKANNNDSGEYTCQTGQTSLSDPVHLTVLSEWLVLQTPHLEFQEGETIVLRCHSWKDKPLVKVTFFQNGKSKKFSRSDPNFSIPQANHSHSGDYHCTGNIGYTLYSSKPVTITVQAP
Chain of His-FcγRIIA (131R) (P12318 36-218 H167R limits assumed): as the sequence (P12318 36-218 limits assumed) above, with H132R counted along it

Molecule: Ref Ab Q variable region on IgG4 (S228P) N297Q (antibody)
Kd (His-FcγRI): 130 nM

Molecule: Ref Ab Q variable region on IgG4 (S228P) reference (antibody)
Kd (His-FcγRI): 2.71 nM | Kd (His-FcγRIIB): 1080 nM | Kd (His-FcγRIIA (131R)): 800 nM | Kd (His-FcγRIIA (131H)): 3520 nM

Molecule: Ref Ab Q variable region on IgG1 reference (antibody)
Kd (His-FcγRI): 0.664 nM | Kd (His-FcγRIIB): 420 nM | Kd (His-FcγRIIA (131R)): 950 nM | Kd (His-FcγRIII (158F)): 330 nM | Kd (His-FcγRIIA (131H)): 640 nM

Molecule: Ref Ab Q variable region on IgG2/4 V234A, G236A (antibody)
Kd (His-FcγRIIB): 5340 nM

B1: human C5a (ligand, UniProt P01031 678-751, looked up)
chain: TLQKKIEEIAAKYKHSVVKKCCYDGACVNNDETCEQRAARISLGPRCIKAFTECCVVASQLRANISHKDMQLGR
notes: C5a is only a fragment of it; also called hC5a
IC50 (human C5a receptor [1]): 4.1 nM

B2: Ref Ab Q variable region on IgG2/IgG4 reference (antibody, part only; not given: Ref Ab Q variable regions, part only)
heavy, part: ASTKGPSVFPLAPCSRSTSESTAALGCLVKDYFPEPVTVSWNSGALTSGVHTFPAVLQSSGLYSLSSVVTVPSSNFGTQTYTCNVDHKPSNTKVDKTVERKCCVECPPCPAPPVAGPSVFLFPPKPKDTLMISRTPEVTCVVVDVSQEDPEVQFNWYVDGVEVHNAKTKPREEQFNSTYRVVSVLTVLHQDWLNGKEYKCKVSNKGLPSSIEKTISKAKGQPREPQVYTLPPSQEEMTKNQVSLTCLVKGFYPSDIAVEWESNGQPENNYKTTPPVLDSDGSFFLYSRLTVDKSRWQEGNVFSCSVMHEALHNHYTQKSLSLSLGK
Kd (His-FcγRIIB): 1830 nM | Kd (His-FcγRIIA (131H)): 1030 nM

B7: 35F12A2 (antibody, V domains shown)
VH: QVQLVESGGGVVQPGRSLRLSCVASGFTFSNYGMHWVRQAPGKGLEWVAVIWYDGINKYYADSVKGRFTISRDNSKSTLYLQMNSLRAEDTAVYYCAGTYYTSGSSKHFQPWGQGTLVTVSS
VL: EIVLTQSPATLSLSPGERATLSCRASQSVSSYLSWYQQKPGQAPRLLIYDASNRATGIPARFSGSGSGTDFTLTISSLEPEDFAVYYCQQRSNWPTFGPGTKVDIKR
notes: Human monoclonal antibody from HumAb mice, purified from hybridoma supernatant
Migration of human neutrophils (in % compared to migration in the absence of antibody) (human C5a receptor [4]): 19% | IC50 (human C5a receptor [5]): 2.04 nM

B9: 35F24A3 (antibody, V domains shown)
VH: EVKLVESGGGLVKPGGSLKLSCSASGFAFSNYDMSWVRQTPEKRLEWVAAFSSDGYTFYPDSLKGRFTISRDNARNTLYLQMSSLGSEDTALYCCARHADYANYPVMDYWGQGTSVTVSS
VL: DIQMTQSPSSLSASVGDRVTITCRASQGISSWLAWYQQKPEKAPKSLIYAASSLQSGVPSRFSGSGSGTDFTLTISSLQPEDFATYYCQQYNSYPRTFGQGTKVEIKR
notes: as for B7
Migration of human neutrophils (in % compared to migration in the absence of antibody) (human C5a receptor [4]): 30% | IC50 (human C5a receptor [5]): 2.97 nM

Further lines, results first:

Kd (His-FcγRIIB): 2100 nM
Molecule: Ref Ab Q variable region on IgG1 L234A, L235E, G237A, A330S and P331S (antibody)

Kd (His-FcγRIII (158V)): 960 nM
Molecule: Ref Ab Q variable region on IgG1 L234A, L235E (antibody)

Kd (His-FcγRI): 360 nM
Molecule: Ref Ab Q variable region on IgG1 N297Q (antibody)

Kd (His-FcγRIIB): 1540 nM | Kd (His-FcγRIIA (131R)): 2790 nM | Kd (His-FcγRIIA (131H)): 220 nM | Kd (His-FcγRIII (158V)): 1500 nM
B3: Ref Ab Q variable region on IgG2 reference (antibody, part only; not given: Variable regions of Ref Ab Q, not shown: another chain or arm of the molecule)
constant: ASTKGPSVFPLAPCSRSTSESTAALGCLVKDYFPEPVTVSWNSGALTSGVHTFPAVLQSSGLYSLSSVVTVPSSNFGTQTYTCNVDHKPSNTKVDKTVERKCCVECPPCPAPPVAGPSVFLFPPKPKDTLMISRTPEVTCVVVDVSHEDPEVQFNWYVDGVEVHNAKTKPREEQFNSTFRVVSVLTVVHQDWLNGKEYKCKVSNKGLPAPIEKTISKTKGQPREPQVYTLPPSREEMTKNQVSLTCLVKGFYPSDIAVEWESNGQPENNYKTTPPMLDSDGSFFLYSKLTVDKSRWQQGNVFSCSVMHEALHNHYTQKSLSLSPGK

IC50 CD11b up-regulation (human C5a receptor [2]): 0.7 µg/mL | IC50 CD62L down-regulation (human C5a receptor [2]): 0.5 µg/mL | IC50 Calcium-flux assay (human C5a receptor [2]): 1.8 µg/mL | IC50, Neutrophil migration (Chemotaxis) Assay (human C5a receptor [3]): 1 µg/mL
B4: 32F3A6 GL (antibody, human IgG1, V domains shown)
VH: EVQLVESGGGLVQPGGSLRLSCAASGFTFSSYVMHWVRQATGKGLEWVSAIDTGGGTYYADSVKGRFTISRENAKNSLYLQMNSLRAGDTAVYYCARDYYYYASGSYYKAFDIWGQGTMVTVSS
VL: EIVLTQSPGTLSLSPGERATLSCRASQSVSSRYLAWYQQKPGQAPRLLIYGASSRATGIPDRFSGSGSGTDFTLTISRLEPEDFAVYYCQQYGSPLTFGQGTKLEIKR

Migration of human neutrophils (in % compared to migration in the absence of antibody) (human C5a receptor [4]): 2% | IC50 (human C5a receptor [5]): 1.9 nM
B5: 32F3A6 (antibody, V domains shown)
VH: EVQLVQSGGGLVHPGGSLRLSCAGSGFTFSSYVMHWVRQAPGKGLEWVSAIDTGGGTYYADSVKGRFTISRDNAKNSLYLQMNSLRAEDMAVYYCARDYYYYASGSYYKAFDIWGQGTMVTVSS
VL: EIVLTQSPGTLSLSPGERATLSCRASQSVSSRYLAWYQQKPGQAPRLLIYGASSRATGIPDRFSGSGSGTDFTLTISRLEPEDFAVYYCQQYGSPLTFGQGTKLEIKR
notes: as for B7

Migration of human neutrophils (in % compared to migration in the absence of antibody) (human C5a receptor [4]): 11% | IC50 (human C5a receptor [5]): 0.95 nM
B6: 35F32A3 (antibody, V domains shown)
VH: QVQLVESGGGLVRPGRSLRLSCAASGFTFRDYGMHWVRQAPGKSLEWVAVIWFDGINKYYGDSVKGRFTISRDNSKNTLYLQMNSLRAEDTAMYYCVGTYFGPGTTEFFQHWGQGTLVTVSS
VL: EIVLTQSPATLSLSPGERATLSCRASQSVSSYLAWYQQKPGQAPRLLIYDASNRATGIPARFSGSGSGTDFTLTISSLEPEDFAVYYCQQRSNWPTFGPGTKVDIKR
notes: as for B7

Kd (His-FcγRI): 380 nM
B8: Ref Ab Q variable region on IgG4 (S228P) E233P, F234V, L235A (antibody, part only; not given: Variable regions of Ref Ab Q, not shown: another chain or arm of the molecule)
constant: ASTKGPSVFPLAPCSRSTSESTAALGCLVKDYFPEPVTVSWNSGALTSGVHTFPAVLQSSGLYSLSSVVTVPSSSLGTKTYTCNVDHKPSNTKVDKRVESKYGPPCPPCPAPPVAGGPSVFLFPPKPKDTLMISRTPEVTCVVVDVSQEDPEVQFNWYVDGVEVHNAKTKPREEQFNSTYRVVSVLTVLHQDWLNGKEYKCKVSNKGLPSSIEKTISKAKGQPREPQVYTLPPSQEEMTKNQVSLTCLVKGFYPSDIAVEWESNGQPENNYKTTPPVLDSDGSFFLYSRLTVDKSRWQEGNVFSCSVMHEALHNHYTQKSLSLSLGK
